Five variants from IntAct's records for PubMed 21816275 can be followed below.

B1: Septum site-determining protein MinD (Escherichia coli (strain K12)), P0AEZ3 (parent)
chain: MARIIVVTSGKGGVGKTTSSAAIATGLAQKGKKTVVIDFDIGLRNLDLIMGCERRVVYDFVNVIQGDATLNQALIKDKRTENLYILPASQTRDKDALTREGVAKVLDDLKAMDFEFIVCDSPAGIETGALMALYFADEAIITTNPEVSSVRDSDRILGILASKSRRAENGEEPIKEHLLLTRYNPGRVSRGDMLSMEDVLEILRIKLVGVIPEDQSVLRASNQGEPVILDINADAGKAYADTVERLLGEERPFRFIEEEKKGFLKRLFGG

Variants of B1 are the subject of the experiment. As to conditions: with mine_ecoli minE.
Turning to D192Y, the “effect of a mutation on the interaction” value is “disrupting interaction”.

As for D198R, the “effect of a mutation on the interaction” value is recorded as “disrupting interaction”.

Regarding G224C, the “effect of a mutation on the interaction” value is reported as “disrupting interaction”.

M193L: the “effect of a mutation on the interaction” value is on record as “disrupting interaction”.

As to N222A, the “effect of a mutation on the interaction” value was “disrupting interaction”.
